Data reported in paper PMC5893371 (Nature medicine, 2018).
Read-outs that look alike come from different tables or passages of the source. No end group written: not given here.

Assays:
[1] = biological target: recombinant PfCSP (rPfCSP), Plasmodium falciparum circumsporozoite protein residues 21-375 (Plasmodium falciparum 3D7 (clone of …, UniProt Q7K740)); experiment: ITC
[2] = biological target: T1, biotinylated peptide 21 (Plasmodium falciparum, also: biotin, position not given here); experiment: BLI
T1 chain: NPDPNANPNVDPNAN

[3] = biological target: T2, PfCSP peptide 25 (Plasmodium falciparum, UniProt Q7K740, position 102 (from Pro to Val)); experiment: ELISA
T2 chain: NVDPNANPNVDPNAN

[4] = biological target: T2, PfCSP peptide 25; experiment: crystal structure
[5] = biological target: T3, PfCSP peptide 20 (Plasmodium falciparum); experiment: crystal structure
T3 chain: PADGNPDPNANPNVD

[6] = biological target: T2, PfCSP peptide 25; experiment: crystal structure
[7] = biological target: T3, PfCSP peptide 20; experiment: crystal structure

B1: mAb CIS43 (antibody, V domains shown)
VH: QVQLVQSGAEVKKPGASVKVSCKASGYTFTSYAIHWVRQAPGQRLEWMGWIKAGNGNTRYSQKFQDRVTITRDTSTTTAYMELSSLRSEDTAVYYCALLTVLTPDDAFDIWGQGTMVTVSS
VL: not shown
- KD of the first binding event [1]: 7.9 nM
- KD of the second binding event [1]: 42 nM
- Kd [2]: < 0.001 nM
- binding result [3]: binds

B2: CIS43 Fab (Fab, V domains shown)
VH: QVQLVQSGAEVKKPGASVKVSCKASGYTFTSYAIHWVRQAPGQRLEWMGWIKAGNGNTRYSQKFQDRVTITRDTSTTTAYMELSSLRSEDTAVYYCALLTVLTPDDAFDIWGQGTMVTVSS
VL: not shown
- KD of the first binding event [1]: 16 nM
- KD of the second binding event [1]: 250 nM
- binding result [4]: binds
- binding result [5]: binds

B3: mAb CIS42 (antibody, V domains shown)
VH: QVQLVQSGSELKKPGASVKVSCKTSGYTFTTYAMNWVRQAPGQGLEWMGWINTNTGNPTYAPGFTGRFVFSFDTSVSTAYLQISSLKAEDTAVYYCARVYSYGVPFDYWGQGTLVTVSS
VL: QSVLTQPASVSGSPGQSITISCTATSSNVGSFNLVSWYQHHPGKAPKLIIHEVSKRPSGASNRFSGSKSGNTASLTISGLQAEDEADYYCCSYVGSDTWVFGGGTKLTV
- Kd [1]: 51 nM
- stoichiometry N [1]: 7

B4: CIS42 Fab (Fab, V domains shown)
VH: QVQLVQSGSELKKPGASVKVSCKTSGYTFTTYAMNWVRQAPGQGLEWMGWINTNTGNPTYAPGFTGRFVFSFDTSVSTAYLQISSLKAEDTAVYYCARVYSYGVPFDYWGQGTLVTVSS
VL: QSVLTQPASVSGSPGQSITISCTATSSNVGSFNLVSWYQHHPGKAPKLIIHEVSKRPSGASNRFSGSKSGNTASLTISGLQAEDEADYYCCSYVGSDTWVFGGGTKLTV
- binding result [6]: binds
- binding result [7]: binds
